In one experiment the test system is TNFα-induced cytoxicity. The experiment can be described thus: TNFα-induced cytotoxicity control assay. The format is cell-based. The settings on record: in words; specificity control. The procedure: As a control in these assays, LPS-induced expression of CD86 mediated by the Toll-like receptors TLR 2/4, and TNFα-induced cytoxicity, were also assayed to exclude effects mediated by ligands other than CD40L.

The target of the next experiment is T1, CD40L-CD40 interaction (Homo sapiens, UniProt P29965).
T1 sequence (P29965 113-261 limits assumed): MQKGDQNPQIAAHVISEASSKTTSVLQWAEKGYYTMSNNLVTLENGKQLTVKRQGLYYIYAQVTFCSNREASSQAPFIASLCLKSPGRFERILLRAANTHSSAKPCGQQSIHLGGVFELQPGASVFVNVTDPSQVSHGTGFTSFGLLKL
Nature of the experiment: Chemiluminescent proximity assay (Alphascreen). It counts as binding. The settings on record: Alphascreen proximity assay; monomeric and dimeric peptides (Table 5); read-out: EC50. The procedure:
In one example, the Alphascreen assay (PerkinElmer) was employed according to the manufacturer's instructions.
Homodimers and heterodimers were also assayed by chemiluminescent proximity assay for their ability to inhibit CD40L-CD40 interaction.

The target in experiment [1] is T2, CD40 ligand (UniProt P29965 108-261, limits assumed).
T2 construct: Used immobilised, soluble, or biotinylated on streptavidin beads; also called CD154; soluble CD40L
T2 sequence (looked up): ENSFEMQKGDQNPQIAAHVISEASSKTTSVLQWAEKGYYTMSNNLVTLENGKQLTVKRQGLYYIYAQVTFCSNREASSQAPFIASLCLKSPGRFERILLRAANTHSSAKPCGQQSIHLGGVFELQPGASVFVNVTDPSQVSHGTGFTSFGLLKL
The experiment can be described thus: Alphascreen proximity assay, peptide dimer titrated against 0.75nM CD40L; blocked interaction: CD40L with CD40; signal falls from about 12500 to about 4000 units.

Experiment [2] addresses T2, CD40 ligand. Nature of the experiment: cell-based or functional assay.
Experiment [3] has as its target T2, CD40 ligand. Nature of the experiment: Alphascreen proximity assay, inhibition of CD40L-CD40.
Experiment [4] deals with T2, CD40 ligand. The experiment can be described thus: from the KD values of Table 2 (Octet Red).
For experiment [5], the target named is T2, CD40 ligand. Nature of the experiment: cell-based or functional assay. The source holds these as a separate data set.
Experiment [6] deals with T2, CD40 ligand. The experiment can be described thus: phage-displayed peptide on bound CD40L, soluble CD40L as competitor.
In experiment [7] the target is T2, CD40 ligand. Nature of the experiment: Octet Red label-free (BLI).
Experiment [8] concerns the target T2, CD40 ligand. The experiment can be described thus: Alphascreen, unmodified peptide, inhibition of CD40L/CD40-Fc.
Experiment [9] has as its target T2, CD40 ligand. Nature of the experiment: Octet Red label-free (BLI). The source holds these as a separate data set.
Experiment [10] has as its target T2, CD40 ligand. The experiment can be described thus: Alphascreen, PEGylated peptide, inhibition of CD40L/CD40-Fc.
Experiment [11] concerns the target T3, CD40 ligand, P29965.
T3 chain: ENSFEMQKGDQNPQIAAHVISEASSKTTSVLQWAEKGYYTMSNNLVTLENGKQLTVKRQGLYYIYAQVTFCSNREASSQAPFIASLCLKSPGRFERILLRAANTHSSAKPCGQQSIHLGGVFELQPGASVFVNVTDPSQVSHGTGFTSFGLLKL
The experiment can be described thus: Octet Red label-free (BLI).

For experiment [12], the target named is T3, CD40 ligand, P29965. The experiment can be described thus: Alphascreen, unmodified peptide, inhibition of CD40L/CD40-Fc.
Experiment [13] deals with T2, CD40 ligand. The experiment can be described thus: Alphascreen proximity assay (1hr), peptide titrated against 0.75nM CD40L; blocked interaction: CD40L with CD40; signal falls from about 21000 to about 3000 units.
The target of experiment [14] is T2, CD40 ligand. The experiment can be described thus: Alphascreen proximity assay, peptide titrated against 0.75nM CD40L; blocked interaction: CD40L with CD40.
In experiment [15] the target is T2, CD40 ligand. The experiment can be described thus: Alphascreen proximity assay, peptide titrated; blocked interaction: CD40L with CD40.
For experiment [16], the target named is T2, CD40 ligand. The experiment can be described thus: Alphascreen proximity assay, peptide dimer titrated against 0.75nM CD40L; blocked interaction: CD40L with CD40; signal falls from about 23000 to about 4000 units.
Experiment [17] has as its target T2, CD40 ligand. The experiment can be described thus: Alphascreen proximity assay (1hr), peptide titrated against 0.75nM CD40L; blocked interaction: CD40L with CD40; signal falls from about 27500 to about 5000 units.

We go through 20 molecules from patent publication US20130266605A1, “PEPTIDE INHIBITORS OF CD40L SIGNALING AND USES THEREFOR” (PHYLOGICA LIMITED, priority 2010, published 2013).

Like-named read-outs stand apart in the source and are kept apart here. Positions of bridges follow the written chain, without caps; N, C: chain ends. Residues, ends and D or L forms follow the SMILES beside them. Chains are numbered I, II in the order given. No end group written: not given here. PEG = not defined here

For the molecule `CC[C@H](C)[C@H](NC(=O)[C@H](CO)NC(=O)[C@H](Cc1ccccc1)NC(=O)[C@@H](NC(=O)[C@H](CC(N)=O)NC(=O)[C@H](CCCCN)NC(=O)[C@@H](NC(=O)[C@H](CO)NC(=O)[C@H](Cc1ccccc1)NC(=O)[C@@H]1CCCN1C(=O)[C@@H](N)Cc1c[nH]cn1)[C@@H](C)CC)C(C)C)C(=O)N[C@@H](Cc1c[nH]c2ccccc12)C(=O)N[C@@H](CC(N)=O)C(=O)N[C@@H](Cc1ccccc1)C(=O)N[C@@H](Cc1ccccc1)C(=O)N[C@@H](CO)C(=O)N[C@H](C(=O)N[C@@H](Cc1ccc(O)cc1)C(=O)O)C(C)C` [CD40L M1_6s] (H-HPFSIKNVFSIWNFFSVY-OH; N-terminus and C-terminus assumed), the “significant inhibition of TNFα-induced cell death / cytoxicity” value with TNFα-induced cytoxicity was “lack of inhibition and none”. Further, the EC50 at CD40L-CD40 interaction lay within 0.122 to 0.323 nM.

B1: Cys_M1_6S homodimer (peptide)
peptide: CHPFSIKNVFSIWNFFSVY
modifications: also: homodimer: disulfide between the N-terminal cysteines of two chains
notes: also called 6-6 dimer; homodimer of the Phylomer peptide M1-6
On to B1, for which the figures for the EC50 in the experiment with CD40 ligand [1] and with CD40 ligand [3] were 48.9 nM and 0.0489 nM, respectively. Further, the “EC50, inhibition of CD40L-induced CD86 expression on primary B-cells” value with CD40 ligand [2] was found to be 48.9 nM.

B2: CD40L D1_0014 (peptide)
peptide: PFTWRPTIFWIIQLIVYMRHFGGGGSRSELLRENICRYVSLFDHPLQRNTPLDELRFVIFDTETSGFDLVKDRILSIR
notes: Single-chain fusion of two peptide monomers; also called heterodimeric peptide of CD40L M1-206 and a second monomer with tetra-glycine spacer
Consider B2, for which the “fold higher affinity than the base monomeric peptide CD40L M1-206” value with CD40 ligand [4] stood at 6 fold.

Turning to LPFVPYRSHVLKYGWFFPVQWSIFAVLPFQYLHRSR [CD40L M1_18s], the “EC50, inhibition of CD40L-induced expression of CD86 on primary B-cells (FACS)” value in the experiment with CD40 ligand [5] is ~743 nM. The “EC50, inhibition of CD40L-induced CD86 expression on primary B-cells” value with CD40 ligand [2] stood at 743 nM.

In the experiment with CD40 ligand [6], LPFVPYRSHVLKYGWFFPVQWSIFAVLPFQYLHRCR (Base peptide) [CD40L M1_18] had a half-inhibitory concentration (IC50) of 25 nM. Also, in the experiment with CD40 ligand [7], the Kd was determined as 2.3 nM. Besides, the “IC50, inhibition of CD40L-induced expression of CD86 on primary B-cells” value with CD40 ligand [5] is < 500 nM. The molecule also yielded an EC50 with CD40 ligand [8] of 350 nM.

On to PRWVRNRFYSLFVPSGVQRGGIHLWFSNWVR (Cys-to-Ser derivative) [CD40L M1_50s], for which, in the experiment with CD40 ligand [9], the Kd was 600 nM. This counts as sub-micromolar.

As for PRWVRNRFYCLFVPSGVQRGGIHLWFSNWVR (Base peptide) [CD40L M1_50], the IC50 with CD40 ligand [6] was 45.8 nM.

{PEG}-PFTWRPTIFWIIQLIVYMRHF (reading uncertain) [PEGylated CD40L M7_206] came in with an EC50 with CD40 ligand [10] of 88 nM.

In the experiment with CD40 ligand, P29965 [11], RIESLEGEMWLINPFNGETLDEHTLEVWLK (modifications not checked) [CD40L M8_748] came in with a dissociation constant Kd of 5 nM. Also, the EC50 with CD40 ligand, P29965 [12] turned out to be 184 nM.

B3: CD40L M8_747 (peptide)
peptide: LAEHAVWSLKCFPDWEWYNINIFGTDDPNHFWVECDGHGKILFPGYPEGYYENHFLHSFELED
modifications: not checked
B3 gave a Kd in the experiment with CD40 ligand, P29965 [11] of 8 nM. Further, the EC50 in the experiment with CD40 ligand, P29965 [12] stood at 197 nM.

DAAGREFFQIAGLFSFRHHWWQA [CD40L M1_30s] yielded a dissociation constant Kd in the experiment with CD40 ligand [9] of 400 nM. That is a sub-micromolar value.

B4: CD40L M1_9s (peptide)
peptide: PPRYNLFFLFRFYSSFRRDYLYF
notes: Cys-to-Ser derivative; also called M1-9Sa
With B4, the EC50 was determined as 564 nM with CD40 ligand [13] and 0.564 nM in the experiment with CD40 ligand [3]. In addition, the “EC50, inhibition of CD40L-induced CD86 expression on primary B-cells” value with CD40 ligand [2] stood at 564 nM.

PPRYNLFFLFRFYCSFRRDYLYF (Base peptide) [CD40L M1_9] returned a concentration for half-maximal inhibition (IC50) in the experiment with CD40 ligand [6] of 81.1 nM. Besides, the Kd with CD40 ligand [7] came to 8 nM. For the same molecule, the EC50 with CD40 ligand [8] came out at 370 nM.

B5: Cys_M1_6S-Cys_M1_189S heterodimer (peptide)
peptide 1: CHPFSIKNVFSIWNFFSVY
peptide 2: CLLLFFFSPPFSIFSFSLTTLS
modifications: disulfide I:1-II:1
notes: also called 6-189 dimer
Take B5: the “EC50, inhibition of CD40L-induced CD86 expression on primary B-cells” value with CD40 ligand [2] was found to be 140 nM. A half-maximal response with CD40 ligand [3] (EC50) required 0.000174 nM.

The molecule HPFSIKNVFCIWNFFSVY (Base peptide) [CD40L M1_6] showed an IC50 in the experiment with CD40 ligand [6] of 16.3 nM. Moreover, binding in the experiment with CD40 ligand [7] was put at a Kd of 24 nM. The EC50 with CD40 ligand [8] came to 440 nM.

With CHPFSIKNVFSIWNFFSVY [Cys_M1_6S], the “IC50 (read off the curve)” value with CD40 ligand [14] and with CD40 ligand [15] was ~300 nM in each case. For the same molecule, the “EC50, inhibition of CD40L-induced CD86 expression on primary B-cells” value in the experiment with CD40 ligand [2] was 306 nM. It took 0.265 nM to reach a half-maximal effect in the experiment with CD40 ligand [3] (EC50).

B6: Cys_M1_6S-Cys_M1_9S heterodimer (peptide)
peptide 1: CHPFSIKNVFSIWNFFSVY
peptide 2: CPPRYNLFFLFRFYSSFRRDYLYF
modifications: disulfide I:1-II:1
notes: also called 6-9 dimer
Take B6: the EC50 in the experiment with CD40 ligand [16] was found to be 30 nM; in the experiment with CD40 ligand [3], 0.03 nM. For the same molecule, the “EC50, inhibition of CD40L-induced CD86 expression on primary B-cells” value with CD40 ligand [2] was found to be 35 nM.

B7: M7_189S (peptide)
peptide: LLLFFFSPPFSIFSFSLTTLS
notes: Cys-to-Ser derivative; also called M1-189Sa
As to B7, the values for the EC50 in the experiment with CD40 ligand [17] and with CD40 ligand [3] were 176 nM and 0.176 nM, respectively. Further, the “EC50, inhibition of CD40L-induced CD86 expression on primary B-cells” value with CD40 ligand [2] is 176 nM.

In the experiment with CD40 ligand [10], {PEG}-SIQYHWRYSRFKYYFQLIWVYYCHV (reading uncertain) [PEGylated CD40L M1_82] gave an EC50 of 120 nM.

As to HPFSIKNVFSIWNFFSVY (Cys-to-Ser derivative) [CD40L M1_6s], the “IC50 (read off the curve)” value with CD40 ligand [14] and with CD40 ligand [15] was ~300 nM throughout. Further, in the experiment with CD40 ligand [2], the “EC50, inhibition of CD40L-induced CD86 expression on primary B-cells” value came out at 323 nM.
